We go through one protein from US9198909B1, “Materials and methods for inhibiting mamalian S-nitrosoglutathione reductase” (Indiana University Research and Technology Corporation, priority 2007, dated 2015).

As a reminder, the Km is the substrate concentration at which the rate is half of its maximum. Broadly, the kcat is the maximal rate divided by the concentration of active sites.

Substrate in this series: CCCCCCCCO
The series is described as follows: GSNOR substrate kinetics with octanol. It is filed as biochemical, human. As to conditions: other: octanol as GSNOR substrate; pH 10.0. Here is the method:
GSNOR is an alcohol dehydrogenases and like other members of ADH family, is capable of oxidizing and reducing primary alcohols and aldehydes with the help of a molecule of NAD(H). Octanol was chosen as the substrate in the initial screening assay as it is bulky like GSNO, but has 200-fold higher KM value (1 mM) and a kcat value (200 min-1) that is more than 2 order of magnitude lower than that of GSNO. This allows the initial velocity conditions to prevail for a period up to 10 min (data not shown) and it enables conducting a large number of concurrent assays in a384 well plate format. The pH of the assay was adjusted to pH 10 in order to get significant rate of oxidation of octanol in the absence of compounds. The screening for GSNOR inhibitors was performed in the presence of saturating concentration of NAD^+ and an un-saturating concentration of octanol thereby increase the probability of identifying compounds that bind, only or primarily in the GSNO binding site of GSNOR. This was deemed desirable as there are many dehydrogenases inside the cells and compounds binding in the coenzyme binding site are more likely to be nonspecific inhibitors of GSNOR, than compounds that bind primarily to the form of GSNOR that binds GSNO.

B1: GSNOR (Homo sapiens) (protein)
chain: MANEVIKCKAAVAWEAGKPLSIEEIEVAPPKAHEVRIKIIATAVCHTDAYTLSGADPEGCFPVILGHEGAGIVESVGEGVTKLKAGDTVIPLYIPQCGECKFCLNPKTNLCQKIRVTQGKGLMPDGTSRFTCKGKTILHYMGTSTFSEYTVVADISVAKIDPLAPLDKVCLLGCGISTGYGAAVNTAKLEPGSVCAVFGLGGVGLAVIMGCKVAGASRIIGVDINKDKFARAKEFGATECINPQDFSKPIQEVLIEMTDGGVDYSFECIGNVKVMRAALEACHKGWGVSVVVGVAASGEEIATRPFQLVTGRTWKGTAFGGWKSVESVPKLVSEYMSKKIKVDEFVTHNLSFDEINKAFELMHSGKSIRTVVKI
As for B1, the Km was 1000 µM and the kcat was 3.33 s⁻¹.
